Test results: patent publication US20210213134A1, “THIOL-BASED MULTIVALENT DRUG DELIVERY COMPOSITIONS” (ORPRO THERAPEUTICS, INC., priority 2018, published 2021)
Where two headings read alike, the source gives them in different places.

What was measured:
[1] = target: insulin (fully disulfide-bonded heterodimeric insulin); experiment: cell-based or functional assay
[2] = target: insulin (fully disulfide-bonded heterodimeric insulin); experiment: cell-based or functional assay; remark: listed apart in the source

| Binder | % reduction C35STRX (insulin heterodimer peak, RP-HPLC), 0 min [1] [%] | % reduction C35STRX (insulin heterodimer peak, RP-HPLC), 90 min [1] [%] | column 'C35STRX' (taken as insulin heterodimer peak area, RP-HPLC), 0 min [1] | column 'C35STRX' (taken as insulin heterodimer peak area, RP-HPLC), 90 min [1] | % reduction C35STRX (insulin heterodimer peak, RP-HPLC), 90 min [2] [%] | column 'C35STRX' (taken as insulin heterodimer peak area, RP-HPLC), 0 min [2] | column 'C35STRX' (taken as insulin heterodimer peak area, RP-HPLC), 90 min [2] | % reduction Azido-C35STRX (insulin heterodimer peak, RP-HPLC), 90 min [1] [%] | attenuation of the ability to reduce insulin disulfides vs. unconjugated monocysteinic thioredoxin [1] [%] | column 'Azido-C35STRX' (taken as insulin heterodimer peak area, RP-HPLC), 0 min [1] | column 'Azido-C35STRX' (taken as insulin heterodimer peak area, RP-HPLC), 90 min [1] | % reduction Azido-C35STRX (insulin heterodimer peak, RP-HPLC), 0 min [2] [%] | % reduction Azido-C35STRX (insulin heterodimer peak, RP-HPLC), 90 min [2] [%] | column 'Azido-C35STRX' (taken as insulin heterodimer peak area, RP-HPLC), 0 min [2] | column 'Azido-C35STRX' (taken as insulin heterodimer peak area, RP-HPLC), 90 min [2] |
| --- | --- | --- | --- | --- | --- | --- | --- | --- | --- | --- | --- | --- | --- | --- | --- |
| reduced (active) C35STRX (enzyme, active site Cys32 in the reduced state) MVKQIESKTAFQEALDAAGDKLVVVDFSATWCGPSKMIKPFFHSLSEKYSNVIFLEVDVDDCQDVASECEVKCMPTFQFFKKGQKVGEFSGANKEKLEATINELV | 0 | 99.4 | 8520 | 50.2 | 97.7 | 10600 | 243 |  |  |  |  |  |  |  |  |
| Azido-C35STRX (C35STRX with azido-PEG linkers on Lys residues, reduced) (enzyme, azido-PEG chains (NHS-PEG4-Azide) on Lys residues, average of 11 per molecule; active site Cys reduced with DTT) MVKQIESKTAFQEALDAAGDKLVVVDFSATWCGPSKMIKPFFHSLSEKYSNVIFLEVDVDDCQDVASECEVKCMPTFQFFKKGQKVGEFSGANKEKLEATINELV |  |  |  |  |  |  |  | 32.7 | 70 | 8960 | 6030 | 0 | 33.1 | 10200 | 6840 |
